Values of other authors, collected in publication PMC10213776.

Molecular target: IL-18 (Homo sapiens) (UniProt Q14116)
Sequence (Q14116 37-193): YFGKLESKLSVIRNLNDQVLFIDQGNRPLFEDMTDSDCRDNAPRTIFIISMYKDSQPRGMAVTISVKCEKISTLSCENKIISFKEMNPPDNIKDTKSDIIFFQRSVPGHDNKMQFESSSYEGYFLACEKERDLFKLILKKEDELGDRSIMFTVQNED

Chain of IL-18BP (O95998 31-194): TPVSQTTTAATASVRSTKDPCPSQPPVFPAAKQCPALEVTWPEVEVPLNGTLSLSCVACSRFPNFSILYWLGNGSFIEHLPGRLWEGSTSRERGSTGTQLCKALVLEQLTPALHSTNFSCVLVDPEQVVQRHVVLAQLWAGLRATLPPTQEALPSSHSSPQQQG

IL-18BP (from UniProt O95998)
Kd: 400 pM
